From article PMC5841405 (2018)
Residue numbers refer to the chain shown, from its start. Names and notes keep the numbering of the source. Like-named read-outs stand apart in the source and are kept apart here.

T1: BICD2_(1–98) (human, UniProt Q8TD16-1 1-98)
T1 chain: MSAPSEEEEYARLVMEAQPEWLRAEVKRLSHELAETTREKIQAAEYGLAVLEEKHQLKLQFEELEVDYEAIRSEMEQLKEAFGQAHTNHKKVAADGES

T2: Spindly_(1–142) (human, UniProt Q96EA4-1 1-142)
T2 chain: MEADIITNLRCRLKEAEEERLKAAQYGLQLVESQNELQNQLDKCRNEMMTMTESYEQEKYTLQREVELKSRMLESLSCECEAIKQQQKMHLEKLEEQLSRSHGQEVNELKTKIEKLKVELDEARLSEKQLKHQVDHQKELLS

B1: Hook3_(1–160)A138D (domain or fragment)
chain: MFSVESLERAELCESLLTWIQTFNVDAPCQTVEDLTNGVVMAQVLQKIDPAYFDENWLNRIKTEVGDNWRLKISNLKKILKGILDYNHEILGQQINDFTLPDVNLIGEHSDAAELGRMLQLILGCAVNCEQKQEYIQDIMMMEESVQHVVMTAIQELMSK
B2: Hook3_(1–160) (domain or fragment)
chain: B1 chain with D138A

Experiments:
BICD2_(1–98) [1] = molecular target: T1, BICD2_(1–98); experiment: ITC; first site (KD1), 30°C
BICD2_(1–98) [2] = molecular target: T1, BICD2_(1–98); experiment: ITC; second site (KD2), 30°C
Spindly_(1–142) [3] = molecular target: T2, Spindly_(1–142); experiment: ITC; second site (KD2)
Spindly_(1–142) [4] = molecular target: T2, Spindly_(1–142); experiment: ITC; first site (KD1)
Hook3_(1–160) = molecular target: B2; experiment: ITC
MBP-LIC1FL [5] = molecular target: MBP-LIC1FL (human); experiment: ITC
MBP-LIC1FL [6] = molecular target: MBP-LIC1FL (human); experiment: ITC; remark: listed apart in the source

Chain of MBP-LIC1FL (human) (chain, as listed by the source): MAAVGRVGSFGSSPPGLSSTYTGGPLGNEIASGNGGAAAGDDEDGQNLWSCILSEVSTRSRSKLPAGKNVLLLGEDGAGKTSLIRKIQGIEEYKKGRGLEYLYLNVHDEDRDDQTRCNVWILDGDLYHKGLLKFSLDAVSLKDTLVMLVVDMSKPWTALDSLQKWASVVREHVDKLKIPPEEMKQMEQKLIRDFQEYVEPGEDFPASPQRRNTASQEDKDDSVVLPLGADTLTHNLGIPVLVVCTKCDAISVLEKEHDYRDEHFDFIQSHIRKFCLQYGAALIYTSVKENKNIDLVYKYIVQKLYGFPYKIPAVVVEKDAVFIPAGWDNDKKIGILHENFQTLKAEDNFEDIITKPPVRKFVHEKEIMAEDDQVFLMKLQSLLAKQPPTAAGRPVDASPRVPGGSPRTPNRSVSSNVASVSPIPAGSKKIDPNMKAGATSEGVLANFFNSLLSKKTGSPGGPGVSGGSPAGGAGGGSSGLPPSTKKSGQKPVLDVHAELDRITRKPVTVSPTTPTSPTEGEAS

Which Kd (BICD2_(1–98) [1]) does the source give for NMKAGATSEGVLANFFNSLLSKKTGS [LIC1_(433–458)] here?
The Kd was 1.5 µM.

And the Kd (BICD2_(1–98) [2])?
The Kd was 7.5 µM.

What about the Kd (Spindly_(1–142) [3]) of the same binder?
The Kd was 7.6 µM.

What about the Kd (Spindly_(1–142) [4]) of the same binder?
Its Kd is 3.6 µM.

What about the Kd (Hook3_(1–160)) of the same binder?
Its Kd is 6.3 µM.

Which Kd (MBP-LIC1FL [5]) does the source give for B1 here?
The Kd was 8.1 µM.

Which Kd (MBP-LIC1FL [6]) does the source give for B2 here?
The Kd was 12.3 µM.
